Laboratory results from US20170183407A1.

Biological target: CD19 on tumor target cells (UniProt P15391)
Test: cell-based or functional assay

UniProt P15391, sequence (P15391 20-556 limits assumed): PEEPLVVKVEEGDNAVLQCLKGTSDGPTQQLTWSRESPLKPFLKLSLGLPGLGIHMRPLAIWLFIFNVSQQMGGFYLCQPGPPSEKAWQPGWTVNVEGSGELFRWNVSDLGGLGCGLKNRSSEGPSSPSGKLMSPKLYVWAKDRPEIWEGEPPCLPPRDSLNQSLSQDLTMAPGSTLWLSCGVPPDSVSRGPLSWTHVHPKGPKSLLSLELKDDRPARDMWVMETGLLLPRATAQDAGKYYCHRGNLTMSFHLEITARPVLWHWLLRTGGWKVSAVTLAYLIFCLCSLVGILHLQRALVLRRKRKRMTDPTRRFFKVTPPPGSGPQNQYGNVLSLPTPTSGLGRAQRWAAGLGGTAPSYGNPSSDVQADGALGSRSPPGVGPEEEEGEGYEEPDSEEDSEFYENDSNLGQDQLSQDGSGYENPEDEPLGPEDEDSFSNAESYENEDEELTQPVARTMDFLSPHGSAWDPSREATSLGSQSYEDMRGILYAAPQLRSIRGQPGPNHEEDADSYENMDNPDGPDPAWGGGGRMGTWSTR

percentage of specific cell lysis (4-hour Chromium Release Assay) [%] | Substance
52 | EZ CAR CD19RCD28mζ CAR (CD19-specific CAR activated through chimeric CD28/CD3-zeta, made with the EZ CAR platform), on T cells
49 | Clinical-grade CD19RCD28mζ CAR (CoOpCD19RCD28ζ), on T cells
